Fewer inactive variants are shown than the library holds.
Legend:
[1] = tested on: biotinyl-Val-oxazolone; assay: self-aminoacylation, catalytic enhancement (BVO) (fold over background); higher = more active; k-Seq, kA / k0A0; sequences stand for … in GGGAAUGGAUCCACAUCUACGAAUUC…UUCACUGCAGACUUGACGAAGCUG
Procedure, shortened: (§1)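 Mutagenized RNA pools (0.43 μM; 21-nt variable region) were treated with 2–1250 μM of each biotinyl-aminoacyl-oxazolone. Conditions were 50 μL HEPES/NaCl/KCl/MgCl2/CaCl2 buffer, 5% acetonitrile, pH 6.9–7.0, room temperature, 90 minutes. Catalytic enhancement, the median kA relative to the uncatalyzed rate, was derived from streptavidin capture, qPCR and Illumina sequencing.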

[2] = tested on: biotinyl-Trp-oxazolone; assay: self-aminoacylation, catalytic enhancement (BWO) (fold over background); higher = more active; k-Seq, kA / k0A0; sequences stand for … in GGGAAUGGAUCCACAUCUACGAAUUC…UUCACUGCAGACUUGACGAAGCUG
Procedure, shortened: as §1

[3] = tested on: biotinyl-Phe-oxazolone; assay: self-aminoacylation, catalytic enhancement (BFO) (fold over background); higher = more active; k-Seq, kA / k0A0; sequences stand for … in GGGAAUGGAUCCACAUCUACGAAUUC…UUCACUGCAGACUUGACGAAGCUG
Procedure, shortened: as §1

[4] = tested on: biotinyl-Leu-oxazolone; assay: self-aminoacylation, catalytic enhancement (BLO) (fold over background); higher = more active; k-Seq, kA / k0A0; sequences stand for … in GGGAAUGGAUCCACAUCUACGAAUUC…UUCACUGCAGACUUGACGAAGCUG
Procedure, shortened: as §1

[5] = tested on: biotinyl-Met-oxazolone; assay: self-aminoacylation, catalytic enhancement (BMO) (fold over background); higher = more active; k-Seq, kA / k0A0; sequences stand for … in GGGAAUGGAUCCACAUCUACGAAUUC…UUCACUGCAGACUUGACGAAGCUG
Procedure, shortened: as §1

[6] = tested on: biotinyl-Ile-oxazolone; assay: self-aminoacylation, catalytic enhancement (BIO) (fold over background); higher = more active; k-Seq, kA / k0A0; sequences stand for … in GGGAAUGGAUCCACAUCUACGAAUUC…UUCACUGCAGACUUGACGAAGCUG
Procedure, shortened: as §1

Sequence | self-aminoacylation [1] | self-aminoacylation [2] | self-aminoacylation [3] | self-aminoacylation [4] | self-aminoacylation [5] | self-aminoacylation [6]
AUUCACCUGGGUCGUCGGGUG [Fam2.2 aminoacylation ribozyme variant] | 2.48 | 2.11 | 6.66 | 2.3 | 2.46 | 1.93
AUUAACUUGGUCAUCGAGUGA [Fam2.1 aminoacylation ribozyme variant] | 2.48 | 4.83 | 3.99 | 4.16 | 3.67 | 2.9
AUUCACCUAGGUCAUCAGGCG [Fam2.2 aminoacylation ribozyme variant] | 1.32 | 1.87 | 1.02 | 1.54 | 1.47 | 1.26
CCACACUUCGAGCAAUUGGUC [Fam1B.1 aminoacylation ribozyme variant] | 0.956 | 0.375 | 0.518 | 0.747 | 0.721 | 0.79
AAGUGUGCUAAGAGUCGCAAG [Fam3.1 aminoacylation ribozyme variant] | 0.87 | 2.15 | 5.24 | 1.13 | 1.15 | 1.11
CCACAGUUCAAGCACUCGGUC [Fam1B.1 aminoacylation ribozyme variant] | 1.62 | 0.897 | 3.53 | 1.73 | 1.3 | 1.16
UUUCACCUAGGUCAUCGGGAG [Fam2.2 aminoacylation ribozyme variant] | 1.35 | 2.02 | 1.4 | 1.82 | 1.73 | 1.68
AAGUUUGCUAAUAGUGGCAUG [Fam3.1 aminoacylation ribozyme variant] | 0.772 | 0.862 | 1.1 | 0.754 | 0.821 | 0.823
GUUCACCUAGGUCUUCGGGUG [Fam2.2 aminoacylation ribozyme variant] | 4.05 | 5.22 | 33.8 | 5.73 | 4.89 | 3.83
CCACACUUGAAGCAAUCCGUC [Fam1B.1 aminoacylation ribozyme variant] | 1 | 0.76 | 0.745 | 0.905 | 0.993 | 1.02
GAUACCCUGGUCAUCGAGUGA [Fam2.1 aminoacylation ribozyme variant] | 5.43 | 10.5 | 31.6 | 7.96 | 8.5 | 4.92
AGUCACGUAGGUCAUCGGGUG [Fam2.2 aminoacylation ribozyme variant] | 5.07 | 6.71 | 52.9 | 5.72 | 5.11 | 3.96
AUUCUCUUAGGUCAUCGGGUG [Fam2.2 aminoacylation ribozyme variant] | 5.53 | 9.36 | 77.6 | 12.5 | 9.08 | 5.7
AAGUCUGCUAAUAGUCGCAAC [Fam3.1 aminoacylation ribozyme variant] | 1.06 | 0.655 | 1.39 | 1.39 | 1.04 | 1.03
AAGUUUGCUAAUAGUCGCGAC [Fam3.1 aminoacylation ribozyme variant] | 0.909 | 1.19 | 1.05 | 0.907 | 1 | 0.944
AUUCCCCUGGACAUCGAGUGA [Fam2.1 aminoacylation ribozyme variant] | 3.45 | 7.13 | 35.4 | 6.77 | 6 | 3.41
CCACACUUCAAGCAAUCGGUC [Fam1B.1 aminoacylation ribozyme variant] | 1.25 | 23.9 | 59.3 | 1.44 | 0.964 | 1.01
AAGUUGGCUAAUAGCCGCAAG [Fam3.1 aminoacylation ribozyme variant] | 1.91 | 2.85 | 2.16 | 1.95 | 2.22 | 1.89
CUACUUCAAACCAACGGUCUG [Fam1A.1 aminoacylation ribozyme variant] | 1.02 | 0.556 | 1.44 | 0.587 | 0.68 | 0.786
CUACUUCAACCAAUCGGGCUG [Fam1A.1 aminoacylation ribozyme variant] | 1.22 | 6.74 | 7.63 | 1.68 | 1.24 | 1.71
CUACUUGAAACAAUCGGACUG [Fam1A.1 aminoacylation ribozyme variant] | 0.786 | 0.651 | 0.551 | 0.944 | 0.782 | 0.922
AAGGUUGCUAAUCGUCGCAAG [Fam3.1 aminoacylation ribozyme variant] | 1.2 | 2.14 | 3.36 | 1.09 | 1.07 | 1.27
AUAACCCUGGUCAUCGAGCGA [Fam2.1 aminoacylation ribozyme variant] | 1.59 | 1.52 | 1.91 | 2.88 | 1.58 | 1.62
UAGUUUGCUAAUAGUCACAAG [Fam3.1 aminoacylation ribozyme variant] | 1.31 | 2.38 | 5.1 | 1.76 | 1.51 | 1.41
AAGUUUGCUUAUACUCGCAAG [Fam3.1 aminoacylation ribozyme variant] | 0.814 | 0.554 | 0.761 | 0.66 | 0.863 | 0.779
AUUACCCUGGUCAGGGAGUGA [Fam2.1 aminoacylation ribozyme variant] | 2.54 | 2.41 | 18.9 | 3.27 | 3.36 | 2.57

Sequence | self-aminoacylation [1] | self-aminoacylation [2] | self-aminoacylation [3] | self-aminoacylation [4] | self-aminoacylation [5] | self-aminoacylation [6]
AAGGUUGCUAAUAAUCGCAAG [Fam3.1 aminoacylation ribozyme variant] | 1.02 | 1.59 | 1.47 | 1.19 | 1.11 | 1.41
AUUACCCUAGUCAGCGAGUGA [Fam2.1 aminoacylation ribozyme variant] | 3.38 | 6.79 | 23.4 | 5.18 | 5.1 | 3.38
UCACACUUCAAACAAUCGGUC [Fam1B.1 aminoacylation ribozyme variant] | 1.55 | 42.8 | 89.1 | 2.25 | 1.66 | 1.34
AAGUUUGCUAAUAGGCUCAAG [Fam3.1 aminoacylation ribozyme variant] | 0.774 | 0.535 | 0.973 | 0.715 | 0.493 | 0.664
CCACAUUUCACGCAAUCGGUC [Fam1B.1 aminoacylation ribozyme variant] | 2.68 | 2.16 | 2.13 | 2.68 | 2.75 | 2.33
CUACUUCAAGCACUCGGUCUG [Fam1A.1 aminoacylation ribozyme variant] | 1.3 | 1.28 | 2.08 | 1.17 | 0.971 | 1.23
AUUCACCUAGCUCAUCGGUUG [Fam2.2 aminoacylation ribozyme variant] | 0.845 | 0.533 | 0.258 | 0.861 | 0.921 | 0.978
CUUACCCUGGUCAUCCAGUGA [Fam2.1 aminoacylation ribozyme variant] | 2.77 | 5.03 | 16.9 | 4.63 | 4.04 | 2.37
CGACACUUAAAGCAAUCGGUC [Fam1B.1 aminoacylation ribozyme variant] | 0.95 | 0.792 | 1.13 | 0.849 | 0.956 | 0.886
CUAAUUCAAUCAAUCGGUCUG [Fam1A.1 aminoacylation ribozyme variant] | 0.72 | 2.7 | 4.62 | 0.735 | 0.742 | 0.805
CCACACUACAAACAAUCGGUC [Fam1B.1 aminoacylation ribozyme variant] | 0.883 | 0.993 | 1.41 | 0.652 | 0.642 | 0.904
AUUACCCUUGUCAUCGAGCGA [Fam2.1 aminoacylation ribozyme variant] | 1.19 | 0.631 | 0.755 | 1.67 | 1.12 | 1.49
AGUCACCUAGGUCAUCCGGUG [Fam2.2 aminoacylation ribozyme variant] | 5.32 | 7.84 | 56.9 | 6.49 | 6.2 | 5.6
AAGUUUGCUAAUAGUAGCAAG [Fam3.1 aminoacylation ribozyme variant] | 0.993 | 0.96 | 1.22 | 0.95 | 1.02 | 1.04
AAGUUGGCUCAUAGUCGCAAG [Fam3.1 aminoacylation ribozyme variant] | 1.88 | 2.44 | 2.43 | 1.99 | 1.71 | 1.8
AUUCACAUAGCUCAUCGGGUG [Fam2.2 aminoacylation ribozyme variant] | 2.38 | 2.34 | 12.6 | 2.36 | 1.91 | 2
ACGUUUGCUAAUAGUCUCAAG [Fam3.1 aminoacylation ribozyme variant] | 1.13 | 2.15 | 3.28 | 1.02 | 0.921 | 1.11
AAGUUUGCUAAUAGUCUUAAG [Fam3.1 aminoacylation ribozyme variant] | 1.11 | 6.3 | 25.7 | 1.11 | 1.24 | 1.16
AUGACCCUGGUCAUCGUGUGA [Fam2.1 aminoacylation ribozyme variant] | 1.5 | 2.61 | 17.4 | 2.88 | 2.76 | 1.4
CUUACUCUGGUCAUCGAGUGA [Fam2.1 aminoacylation ribozyme variant] | 3.07 | 5.52 | 14.2 | 5.28 | 4.98 | 2.54
AUUCCCCUUGUCAUCGAGUGA [Fam2.1 aminoacylation ribozyme variant] | 7.45 | 14.9 | 70.6 | 11.4 | 11.1 | 6.44
AUUCACCUAGGUCACCGCGUG [Fam2.2 aminoacylation ribozyme variant] | 6.86 | 10.9 | 85.2 | 18.1 | 12.6 | 7.2
AUUACCCUAGACAUCGAGUGA [Fam2.1 aminoacylation ribozyme variant] | 4.07 | 9.09 | 37 | 7.96 | 8.71 | 3.77
AUUCGCCUAGGUCAUGGGGUG [Fam2.2 aminoacylation ribozyme variant] | 4.43 | 5.56 | 31.7 | 6.48 | 5.41 | 3.88
CGACACUUCAAGCAAUCGUUC [Fam1B.1 aminoacylation ribozyme variant] | 0.946 | 0.465 | 1 | 0.669 | 0.629 | 0.778

From the supplement of paper PMC9233669
